This note sets out measurements from PMC7378552, “Impact of the nisin modification machinery on the transport kinetics of NisT” (Scientific Reports, 2020).

B2: 10HNisT (deca-histidine tagged NisT, ABC transporter of the nisin precursor peptide) (natural protein, Lactococcus lactis, UniProt Q03203 1-600, looked up)
chain: MDEVKEFTSKQFFYTLLTLPSTLKLIFQLEKRYAIYLIVLNAITAFVPLASLFIYQDLINSVLGSGRHLINIIIIYFIVQVITTVLGQLESYVSGKFDMRLSYSINMRLMRTTSSLELSDYEQADMYNIIEKVTQDSTYKPFQLFNAIIVELSSFISLLSSLFFIGTWNIGVAILLLIVPVLSLVLFLRVGQLEFLIQWQRASSERETWYIVYLLTHDFSFKEIKLNNISNYFIHKFGKLKKGFINQDLAIARKKTYFNIFLDFILNLINILTIFAMILSVRAGKLLIGNLVSLIQAISKINTYSQTMIQNIYIIYNTSLFMEQLFEFLKRESVVHKKIEDTEICNQHIGTVKVINLSYVYPNSNAFALKNINLSFEKGELTAIVGKNGSGKSTLVKIISGLYQPTMGIIQYDKMRSSLMPEEFYQKNISVLFQDFVKYELTIRENIGLSDLSSQWEDEKIIKVLDNLGLDFLKTNNQYVLDTQLGNWFQEGHQLSGGQWQKIALARTFFKKASIYILDEPSAALDPVAEKEIFDYFVALSENNISIFISHSLNAARKANKIVVMKDGQVEDVGSHDVLLRRCQYYQELYYSEQYEDNDE
notes: NisT, lanthipeptide ABC transporter of Lactococcus lactis; nisT gene amplified from genomic DNA of L. lactis NZ97000 and inserted into pNZ-SV10H; TMD is residues 1-347, the NBD begins at H348; Used in detergent (CYMAL5) in the pull-down; also called WT; source: L. lactis NZ9000 (pNZ-SV10HnisT), membranes solubilised with FC-16, purified (IMAC, SEC); not shown: His10 (deca-histidine), N-terminal, …

The target in one assay is T1, NisT (10HNisT) (Lactococcus lactis, UniProt Q03203).
T1 construct: full length, N-terminal deca-His tag with linker (tag kept), homologous expression in L. lactis NZ9000, solubilised in Fos-choline-16, assayed in CYMAL5
T1 sequence (Q03203 1-600): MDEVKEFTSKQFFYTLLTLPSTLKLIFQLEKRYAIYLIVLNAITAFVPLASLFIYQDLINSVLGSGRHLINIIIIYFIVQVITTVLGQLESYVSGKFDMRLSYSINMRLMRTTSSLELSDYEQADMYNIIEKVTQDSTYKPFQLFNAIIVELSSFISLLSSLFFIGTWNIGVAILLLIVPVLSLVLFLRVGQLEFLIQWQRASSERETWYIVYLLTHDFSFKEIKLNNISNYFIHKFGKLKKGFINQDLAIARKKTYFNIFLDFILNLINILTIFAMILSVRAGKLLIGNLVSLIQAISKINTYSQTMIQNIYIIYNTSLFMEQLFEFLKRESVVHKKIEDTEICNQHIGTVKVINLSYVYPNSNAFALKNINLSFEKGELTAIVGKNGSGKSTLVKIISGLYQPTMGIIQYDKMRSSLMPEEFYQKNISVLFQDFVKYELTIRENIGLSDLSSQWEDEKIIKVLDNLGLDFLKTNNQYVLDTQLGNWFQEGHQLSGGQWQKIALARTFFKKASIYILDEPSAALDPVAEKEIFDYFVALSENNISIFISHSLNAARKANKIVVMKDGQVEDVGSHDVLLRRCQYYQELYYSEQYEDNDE
The experiment in a line: malachite green phosphate release assay, Michaelis-Menten fit. It counts as biochemical. Conditions: basal ATPase, no peptide substrate; 1 µM NisT, ATP 0-5 mM, 10 mM MgCl2, 0.4% CYMAL5, 30 °C, 30 min.

Assay [1] deals with B2. The experiment in a line: pull-down; 10HNisT (~15 ug) immobilised on Ni-NTA magnetic beads; 10 uM NisB, NisC or NisBC added without substrate; activity assay buffer with 0.4% CYMAL5, 400 mM glutamate, 5 mM MgATP; 1 h at 30 C; six washes, elution with 50 mM EDTA; Western blot. Conditions: both partners purified.
The target in assay [2] is T2, NisB (dehydratase of nisin precursor peptide) (Lactococcus lactis, UniProt P20103 1-993).
T2 construct: NisB, nisin dehydratase of Lactococcus lactis; NisB alone was not held on Ni-NTA beads, so it probably bore no His tag in the assay; source: purified
T2 sequence (looked up): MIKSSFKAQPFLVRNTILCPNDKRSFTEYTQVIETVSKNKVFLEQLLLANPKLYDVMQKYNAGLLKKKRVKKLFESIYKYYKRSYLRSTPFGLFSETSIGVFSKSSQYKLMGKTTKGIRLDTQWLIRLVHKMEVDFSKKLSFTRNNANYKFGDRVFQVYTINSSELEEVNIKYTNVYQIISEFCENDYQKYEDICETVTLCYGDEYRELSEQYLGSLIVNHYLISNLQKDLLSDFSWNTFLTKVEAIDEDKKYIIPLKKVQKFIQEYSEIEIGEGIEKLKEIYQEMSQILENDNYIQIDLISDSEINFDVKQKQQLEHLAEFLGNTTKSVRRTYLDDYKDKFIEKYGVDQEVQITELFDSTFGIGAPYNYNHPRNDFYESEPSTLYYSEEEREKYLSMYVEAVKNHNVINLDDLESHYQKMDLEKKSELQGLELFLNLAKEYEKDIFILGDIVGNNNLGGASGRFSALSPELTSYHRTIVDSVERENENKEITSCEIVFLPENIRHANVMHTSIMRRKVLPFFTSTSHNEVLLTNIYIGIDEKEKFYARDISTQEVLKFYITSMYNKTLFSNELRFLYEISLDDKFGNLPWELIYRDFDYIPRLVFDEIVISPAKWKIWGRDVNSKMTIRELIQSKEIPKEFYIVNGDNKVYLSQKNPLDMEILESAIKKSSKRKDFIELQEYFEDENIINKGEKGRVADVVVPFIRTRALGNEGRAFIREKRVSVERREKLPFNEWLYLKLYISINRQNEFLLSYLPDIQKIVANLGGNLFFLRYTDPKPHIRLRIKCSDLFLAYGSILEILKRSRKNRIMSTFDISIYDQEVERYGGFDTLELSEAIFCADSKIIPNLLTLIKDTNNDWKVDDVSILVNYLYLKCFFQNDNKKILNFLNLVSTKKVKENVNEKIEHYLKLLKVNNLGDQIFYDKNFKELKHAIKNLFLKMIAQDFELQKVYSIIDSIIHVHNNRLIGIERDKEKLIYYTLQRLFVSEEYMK
The description is as above. Conditions: both partners purified.

Regarding `Nc1ncnc2c1ncn2[C@@H]1O[C@H](COP(=O)(O)OP(=O)(O)OP(=O)(O)O)[C@@H](O)[C@H]1O` [ATP], on NisT (10HNisT), the Michaelis-Menten constant (Km) was found to be 370 ± 40 µM.

B1: NisC (cyclase of nisin precursor peptide) (enzyme, Lactococcus lactis, UniProt Q03202 1-418, looked up)
chain: MRIMMNKKNIKRNVEKIIAQWDERTRKNKENFDFGELTLSTGLPGIILMLAELKNKDNSKIYQKKIDNYIEYIVSKLSTYGLLTGSLYSGAAGIALSILHLREDDEKYKNLLDSLNRYIEYFVREKIEGFNLENITPPDYDVIEGLSGILSYLLLINDEQYDDLKILIINFLSNLTKENNGLISLYIKSENQMSQSESEMYPLGCLNMGLAHGLAGVGCILAYAHIKGYSNEASLSALQKIIFIYEKFELERKKQFLWKDGLVADELKKEKVIREASFIRDAWCYGGPGISLLYLYGGLALDNDYFVDKAEKILESAMQRKLGIDSYMICHGYSGLIEICSLFKRLLNTKKFDSYMEEFNVNSEQILEEYGDESGTGFLEGISGCILVLSKFEYSINFTYWRQALLLFDDFLKGGKRK
notes: NisC, nisin cyclase of Lactococcus lactis; NisC alone was not held on Ni-NTA beads, so it probably bore no His tag in the assay; source: purified
For the molecule B1, the binding result in assay [1] is listed as “binds”.

On to B2, for which, in assay [2], the binding result is recorded as “binds”.
